Experimental data as given in patent publication US8846861B2, “Peptide clearing agents” (Mologic Ltd, priority 2009, dated 2014).

Tested on: CCL 229 (LoVo) CEA expressing cell line
Experiment: Flow cytometry cell binding, CEA expressing cell line
Assay type: cell-based
Details: CCL 229, PE label, 1 hour at 4° C.
Method: Measurement by Flow Cytometry of Binding Capability of scFv Anti-CEA-CPG2 Using CEA Expressing Cells.
CRL 1573—control cell line, CCL 229 (LoVo)—CEA expressing cell line
Cultured cells were both used at 2×10^5 cells per tube, cells in tubes were prepared to contain the following
Cells were spun down and 100 μl of antibody solution was added to respective tube. 100 μl buffer was added to tubes 1 and 2 and left in fridge until later.
Tubes were incubated in the dark at 4° C. for 1 hour, add 1 ml PBSAB and spun as above. Include tube 1 in this wash. The supernatant was removed and 100 μl conjugate was added to tube 6 for a further incubation of 1 hr in the dark at 4° C.
Added 150 μl 0.5% formaldehyde to tubes 1, 3, 4 and 5, stored in the fridge until measured (˜2 hours). Washed tube 6 as before and add formaldehyde to this tube. 30 minutes before measuring add 100 μl Propidium Iodine to tube 2, before measuring, added 1 ml of PBS to all samples.

B1: CPG2 control: carboxypeptidase G2 conjugated to phycoerythrin, control without anti-CEA part (protein)
chain: ALAQKRDNVLFQAATDEQPAVIKTLEKLVNIETGTGDAEGIAAAGNFLEAELKNLGFTVTRSKSAGLVVGDNIVGKIKGRGGKNLLLMSHMDTVYLKGILAKAPFRVEGDKAYGPGIADDKGGNAVILHTLKLLKEYGVRDYGTITVLFNTDEEKGSFGSRDLIQEEAKLADYVLSFEPTSAGDEKLSLGTSGIAYVQVNITGKASHAGAAPELGVNALVEASDLVLRTMNIDDKAKNLRFNWTIAKAGNVSNIIPASATLNADVRYARNEDFDAAMKTLEERAQQKKLPEADVKVIVTRGRPAFNAGEGGKKLVDKAVAYYKEAGGTLGVEERTGGGTDAAYAALSGKPVIESLGLPGFGYHSDKAEYVDISAIPRRLYMAARLIMDLGAGK
- binding to cells by flow cytometry (in words): does not bind
